Experimental data: the DeepSol protein solubility set

Test: soluble on expression in E. coli; label from the status in PepcDB or PDB records
In the case of “MGSDKIHHHHHHMLTRLEVNCFKNLLGFSVNFGPFNCVAGLNGVGKSNIFDSIKFLSLLADKSIVEAALEVRESDSTDPLDIFWTNGEFRSERLSLAVEMIVPVDVIDDFGRRAKATSTFLRYEVELARDDGERESGSLGLHLVKETLIHINKGEAVDRLRFPMSAAKFRENIVINKRKGAGFISTHQDRDGIVEIHLHQDGGSSGQPQKFPARNAPKTVVSNTNSGVWPTILAARREMQSWRFLSLEPSAMRRSNKIHEEGAVSSGGGRLGAALYKLHRKDPSVYTRVASRLSEIVPTSDIRVDVDQVRQLLTVEVKERSGAFLPARALSDGTLRFLALSIIAEDPDFNGVLCFEEPENGIHPARVGAMLALLKELSVDPHDEVSESNSMRQIVVATHSPVLVSLEEPNDLIFADVVKVKGPNGMPATTIRCKCLRESWRFSDEEGNGIDRASIISYLELPPDRQISLNLKTTGVAINLEATV”, the “soluble on expression in E. coli” value is reported as “not soluble”. With “MGSDKIHHHHHHMLTTLAIFNYRSLREIVLPLGQLNLITGANGSGKSNLYKALRLLAQTAQGGVVNALAQEGGLDSSFWAGPENFTKSMLAGDTAIEATVRQAPKRLKLGFAGEDFSYLIELGLPEPDATTLFGLDPQIKREAIWNGPKYRPSTVLVERRGPMVKSRSADGKGWIILGAHLQTGDSLFTELADPERCPEVLKLRDSIRAWRFYDHFRTDAEAPARRPQLGTATPVLHHDGRDLASAIQTIFEIGDKSAFDHAVSDAFPGAKVRIEPQAGGILVLAFHQHGLLRPLNASELSDGTLRYLLLIAALLTPRPPELMVLNEPETSLHPDLLPALARLIAKVSEECQLWVVSHANRLINALSQFEHCNTLALDKTLGQTQIQGQDLLNTPSWLWQNR” the “soluble on expression in E. coli” value was “not soluble”. With “MGSDKIHHHHHHMLVLNNLQKKFTNSKMVLNNVNAKFRSGSINCIVGVNGAGKTTLLNIISSILMPTKGDVYLNSESIFENSTLKKEIFYTPVNPFFYENLSAKDNLYLICSLYNRKIDQITIEKTIKDVGLNIEDLNIPVYNFSSGMKQKLNFASMLLVDSNVLLLDEPFNALDHVAQKNFTRILKGLVSKEKIIIFTSHLPNTILELSENIYLLKDGCFTDKRKAQSFNQTTLETWLLESQKEVIPYEEK” the “soluble on expression in E. coli” value was “not soluble”. With “MGSDKIHHHHHHMMAEALQRENPSGFEGSVAGLPLTDVIQLKGQNRFSGCIAVEYRERQGMIFFRDGDIIHAEQGKLMGEMALYEIIRWPGGRFNIQPKVTTTSRTIQQSISFLLLEAHRLMDEEQAAVRADEGTRREEAAAPAAVQNRMSAVAERIVRIAGVSYAVLMKKDGTPLEDDSFEAEVLSAKGMSLAGIGSRLGELFGLDEVKSAAVHARGKQILLFEAKNHYVSIAVRGDSSLAHVENEIRSTFAGRK” the “soluble on expression in E. coli” value was “not soluble”. In the case of “MGSDKIHHHHHHMMELRYNPLTDEWVIVSAATQKRPVQPSKTECPICVGGLELPEEYDLVTFENRYPSLKKDPPPVNWKEKGPFRKEESRGVCEVVVYTSDHNTALPGMPLKQIEKLVEMWVDRTRDLSQHDFVKYIFIFENRGKEVGASLPHPHGQIYAFPFLPKRIEVKIGAMRKWYEEKRKCPICEVLESEGEERKVYETEHFLALVPFYARFPYEVHIYPKRHVSTLLEFSKEEKKEFAKVLKVVTAKYDKLFDQEFPYMMMFFQAPFNEEDVSHFFHFHVEFNPPKRDRDKLKWMASVETGTWAFINPVVPEEAARQLRETEVEI”, the “soluble on expression in E. coli” value is reported as “not soluble”. In the case of “MGSDKIHHHHHHMMENFPKPVVVVSKCLGFDSCRYNGDIIDAPFVDKLRSHVTFVPVCPEVEIGLGVPRKPIRIVSDKGITTLYQPATGKDFTGTMRSFVDDFLGSLTEVDGFLLKNRSPSCGVGDVKIHAGFDEGARMFRGSGFLGGAVLERFAGLPVEDEGRIRNFTIREHFLTRLFLFARFREVKKSGSMRGLVDFHSLQKLLLMGYNQAQMRLLGKIVANHEKADWNTMITRYEEQLKRALANPPRFTAMINVLLHAFGGFSNVLAKEEKAFFLDLIEEYRDERIPLSALLQVLRGWSIRFRNDYLLGQTFLQPYPGQLSKITDSGKGREP”, the “soluble on expression in E. coli” value is reported as “not soluble”. In the case of “MGSDKIHHHHHHMMKALILAGGSGERFWPLSTPETPKQFLKLFGNKSLMRWTFERVLEEMDPKDVIVVTHKDYVERTKKELPELPDENIIAEPMKKNTAPACFIGTKLADDDEPVLVLPADHRIPDTKKFWKTVKKALDALEKYDGLFTFGIVPTRPETGYGYIEIGEELEEGVHKVAQFREKPDLETAKKFVESGRFLWNSGMFLWKAREFIEEVKVCEPSIYENLKDVDPRNFEELKKAYEKVPSISVDYAVMEKSKKVRVVKADFEWSDVGNWSSVREIEGYTEESDEVILVDSDRVFVKTHNKPIAVVGLSDVIVIDTPNGILICKEEYAQKVREVVKKLFRTS”, the “soluble on expression in E. coli” value is reported as “not soluble”. With “MGSDKIHHHHHHMMKSRDKKDLILESIIQTYLLDNAPIGSNELNSNLCIPASTIRVYLKRLSDEGLITQLHISSGRIPTILTMQNYWQNFWEKEQDKNIHIKNESFLKELSKEFEIYCLVYGGRSLVLKEVLDLNTKFIVLDFEDEELVLKYEKEAWNFLQSLIGLDLSSIEKIALRVHFIDLVEKIASLRQNLICYRSNEERAYQIYQNDEFVKLLDCQIHRHFKESLEFEPLFKEGFMGLKVDAQFLGEDVNIILAGSVYTDYKKILQYIKEAA” the “soluble on expression in E. coli” value was “not soluble”. For “MGSDKIHHHHHHMMKTVNELIKDINSLTSHLHEKDFLLTWEQTPDELKQVLDVAAALKALRAENISTKVFNSGLGISVFRDNSTRTRFSYASALNLLGLAQQDLDEGKSQIAHGETVRETANMISFCADAIGIRDDMYLGAGNAYMREVGAALDDGYKQGVLPQRPALVNLQCDIDHPTQSMADLAWLREHFGSLENLKGKKIAMTWAYSPSYGKPLSVPQGIIGLMTRFGMDVTLAHPEGYDLIPDVVEVAKNNAKASGGSFRQVTSMEEAFKDADIVYPKSWAPYKVMEERTELLRANDHEGLKALEKQCLAQNAQHKDWHCTEEMMELTRDGEALYMHCLPADISGVSCKEGEVTEGVFEKYRIATYKEASWKPYIIAAMILSRKYAKPGALLEQLLKEAQERVK”, the “soluble on expression in E. coli” value was “not soluble”. In the case of “MGSDKIHHHHHHMMNSFYNGISGVKSNSFGIDITANNIANVNTTGFKYSDAQFKDIFYTTITTQSTNPAQGGYGSGAASSQVVFEQGSPVASDGEFDVALQGKGFFGVLGADGNAYYTRNGSFRRDANGYLVDSYGNFVLGTMNPAFTGINYSDRVAGLMGDYLNTGTPVNNGFTVNSNNSFSIGTTASQGAIKVPVNMYLPPQVTQNVKWSGSLNTNTTTEVVKVDLDPSKFNITKTEDGKYVVSGSVSKEDVFSAKAGDRIILNFTDDNGVKTSFEATLDENLNFKSNELDLKGLDENSIKLDTAQISTEQQKANKDILESPIYNADGSKSTLRVTLERVLPQEGDNIQYKAIAQIYDSNGNAVGNPTEGNMVFDKNGALLQNNITSIANPNGGTINIDLGSPYDANKPGSGYSGIYIKQGVEKNVVTQQDGVAEGFFEQYNISDDGSIVAQFSNGKNAIVGKLALYNFINEQGLVAMGDNIFAATANSGDASFIMKDGQVVNTAKFKGGFLEQSNVDLSAELSNLIVTQKAFDASSKSITTSDQMIQKAINMKR”, the “soluble on expression in E. coli” value is reported as “not soluble”. With “MGSDKIHHHHHHMMSLSSAETIRASLHNALGKIESFKSCALLDYPDHPNIGDHLIWLGGVIYLTNVMKTQIKYTCSLHNFSPKTLEDNIGKSPIVFHGGGNLGDLWTEQQKFREGIISKYRDRPIVILPQSLYFRHEVNLIKTANIFNSHPNLTIFLRDERSYKIAREAFDKCQVFKAPDMAFQMTDLQDIFHIQNNKSSILYLSRKDREINQKQSENIFDLPNLVVEDWIAYEWKFGHPTKKLAKYVSTLYREVWQRGLATPIEWNSRQKWQNSYPYEVEFNHVYQPSIHQLSWSLMHSGVYQLKQHRLVITNRLHGHIICVLFNIPHVFLPNSYYKNEAFYEEWTKEIPDCRFIKDTSEVKIAVEELLASSTGKAIN” the “soluble on expression in E. coli” value was “not soluble”. In the case of “MGSDKIHHHHHHMMSVQTTKLDAVPLGDRAPILEMRGISQIFPGVKALDGVNIALYPGEVTALIGENGAGKSTLVKILTGIYRPNEGEIVIDGSPVTFADAQAAIDAGVTAIHQETVLFDELSVAENIFLGHAPKTRFGFIDWNGINTKARALMDRLESKIDPTIRLKDLSIAQRHLVAIARALSVEARIVIMDEPTAALSRKEIDDLFRIVEGLKRDGKAILFISHKFDEVYEIAENYAVFRDGKMVGAGRLQSTPQDEIVRLMVGRDVHDAFPKIDVSIGAAVLSVSRYCHDTEFRDISFDLRKGEILGFYGLIGAGRSELCQSLFGITHPASGTVTLEGRALDIRSPADAIAAGIVYVPEERGRHGLALQMPIYQNMSLPSLARVSARGFLKVVNELALARHYAERLDLRAAALSVPVGTLSGGNQQKVVIGKWLATKPKVIILDEPTKGIDIGSKAAVHGFISELAAEGLSIIMISSELPEILGMSDRVMVMREGLQAGIFEREALTPEVLVRAATGNA”, the “soluble on expression in E. coli” value is reported as “not soluble”. In the case of “MGSDKIHHHHHHMMYQTYDLYSRSAEMMNGFISVNQQLLTHPFNPFSNTLLGKSINAALDSAYHHTKVYDKQPFDIKTTIIDGETVNIDEQVILAKPFCNLIHFKQDTKVQQPKLFLVAPLSGHHATLLKATIERLILDHDVYITDWLDAKNVPLSEGNFDFDDYVTYLIEFMKEIGEDTHVLAVCQPAVQALIATAVLAKDKDAATPKSLTIIAGPIDTSINPNELNKYASSKDLSWFENNVIMTVPERFPGAGRKVYPGFIQLTSFMAMNIENHVKKHTDYFGHVFHGKEDKQESHRDFYDEYLAVLDLNSEFYLETLDRVFINQDLANGKMTYHGELVDLSAITDTALHTIEGKNDDICSLGQTQAAQALCSGIPEQNKLDQVFDGVGHFGTFSGSAFRERIAPSIAEFIQKHK”, the “soluble on expression in E. coli” value is reported as “not soluble”. In the case of “MGSDKIHHHHHHMNAEKSPENHNVDHEEIAKFEAVASRWWDLEGEFKPLHRINPLRLGYIAERAGGLFGKKVLDVGCGGGILAESMAREGATVTGLDMGFEPLQVAKLHALESGIQVDYVQETVEEHAAKHAGQYDVVTCMEMLEHVPDPQSVVRACAQLVKPGGDVFFSTLNRNGKSWLMAVVGAEYILRMVPKGTHDVKKFIKPAELLGWVDQTSLKERHITGLHYNPITNSFKLGPGVDVNYMLHTQNK”, the “soluble on expression in E. coli” value is reported as “not soluble”. With “MGSDKIHHHHHHMNAHTIPELRYAMSREAIIGHETAWKVSSFGVAQYLHGYDPALLAAIEEAALKLKDSHAVHKHLDLTFITGADRFIPEIKELLHDKLRLERLSDMMGTKLEPYPLSIVGSTVTFMNPRDGAVEWHCDGVPVTELIPLSISNPLVGGHLEIYCDDSETGRAILESGREIPRNRIMRIDHKMNYATLGQFLGVLHRTAPIQYGERVTLVLNQRSVAKPYVDDNRMFYLAADNDHDREWVNELAEDVWTNQLPAYRRFEAEHPTPAPASETQVSGGARGSW” the “soluble on expression in E. coli” value was “not soluble”. In the case of “MGSDKIHHHHHHMNDENIQSSNYQPFPSFDDWKQIEVSLLDVIESSRHFSDLKDSTDRSALDAALERAKRAAAVDTNAIEGIFQTDRGFTHTVATQVGAWEQQMAMKGKHVKPAFDDTLEGFEYVLDAVTGRTPISQQWIRNLHAVILRSQESHEVFTAVGVQNQALQKGEYKTQPNSPQRSDGSVHAYAPVEDTPAEMARFISELESKEFLAAEKVIQAAYAHYAFVCIHPFADGNGRVARALASVFLYKDPGVPLVIYQDQRRDYIHALEAADKNNPLLLIRFFAERVTDTINSIIVDLTTPIAGKSGSAKLSDALRPTRVLPELHDAAHRLQESLFTEIRSRLDEEGKRNGLEFLLQRIFIGSPFNLPEGYNAFPDSYCLTLAFNSNSPKQIFHPLSIVIAARDGKRASSDLVAATSIGYNFHAYGREVEPVVTESFRERVKIYADGIVDHFLTELAKKFQQN”, the “soluble on expression in E. coli” value is reported as “not soluble”. With “MGSDKIHHHHHHMNDNAERRYRRPSYRITLDEQDITPRINGRLIRLRLRSQRGLEADQLDLTLSDHDGALALPRRGVSLRVAYGWQDDGLIDKGLFTVDEVQHSGTPDQITIRARSADMRGRLPGKRSRSWHDITVGEIIDTIAKRHTLEPVVGDTVRGIRIGHIDQTEESDLNFLTRLGERFDAVATVKAARLLFTQAGEALTASGLAMPSVTLTRRDGDRHRYSATDRDTYTGVIAYWNDKANAKRQRVIAGSDEDAKELRPTYATEADALDAAKAEWRRVQRGEATFKITLAYGRADILPESPLTASGFKPDIDATPWLVTEVEDSLDDNGFGTRVQCEVRGGAAET” the “soluble on expression in E. coli” value was “not soluble”.
